# From article PMC6959990
# Columns and labels:
# [1] = target: PCAT1(C21A) (Clostridium thermocellum) (UniProt A3DCU1); experiment: native MS; in 200 mM ammonium acetate pH 7.5 with 0.5% C8E4 (2X CMC); 4 µM PCAT1 monomer alone, or 4 µM PCAT1(C21A) monomer + 8 µM CtA (two-fold excess of CtA); abundances corrected for gas-phase dissociation
# [2] = target: PCAT1(C21A) (Clostridium thermocellum) (UniProt A3DCU1); experiment: native MS; in 200 mM ammonium acetate pH 7.5 with 0.058% UDM (2X CMC); 4 µM PCAT1 monomer alone, or 4 µM PCAT1(C21A) monomer + 8 µM CtA (two-fold excess of CtA); abundances corrected for gas-phase dissociation
# [3] = target: PCAT1(C21A) (Clostridium thermocellum) (UniProt A3DCU1); experiment: cryo-EM structure; PCAT1(C21A) (5 mg/ml, 62 µM monomer) mixed with 62 µM refolded CtA, 30 min on ice, in UDM, no ATP
# [4] = target: wt PCAT1 (Clostridium thermocellum) (UniProt A3DCU1); experiment: native MS; in 200 mM ammonium acetate pH 7.5 with 0.5% C8E4 (2X CMC); 4 µM PCAT1 monomer alone, or 4 µM PCAT1(C21A) monomer + 8 µM CtA (two-fold excess of CtA); abundances corrected for gas-phase dissociation
# [5] = target: wt PCAT1 (Clostridium thermocellum) (UniProt A3DCU1); experiment: native MS; in 200 mM ammonium acetate pH 7.5 with 0.058% UDM (2X CMC); 4 µM PCAT1 monomer alone, or 4 µM PCAT1(C21A) monomer + 8 µM CtA (two-fold excess of CtA); abundances corrected for gas-phase dissociation
substance,measurement,setting,value
CtA (natural protein),% abundance of the C21A-PCAT1 dimer + 1 CtA complex,[1],16%
same,% abundance of the C21A-PCAT1 dimer + 2 CtA complex,[1],84%
same,stoichiometry N (CtA per PCAT1 dimer),[1],2
same,% abundance of the C21A-PCAT1 dimer + 1 CtA complex,[2],25%
same,% abundance of the C21A-PCAT1 dimer + 2 CtA complex,[2],75%
same,stoichiometry N (CtA per PCAT1 dimer),[2],2
same,stoichiometry N (CtA per PCAT1 transporter),[3],2
PCAT1(C21A) (from UniProt A3DCU1 1-727) (natural protein),stoichiometry N,[1],2
same,stoichiometry N,[2],2
wt PCAT1 (from UniProt A3DCU1 1-727) (natural protein),stoichiometry N,[4],2
same,stoichiometry N,[5],2
